From patent publication US20200277396A1

What was measured:
[1] = target: human CD83, cell surface, on lymphoma cells (human) (UniProt Q01151); experiment: flow cytometry, HB15a-FITC on HDLM2 cells, gate placed right of the grey isotype control histogram
[2] = target: human CD83, cell surface, on lymphoma cells (human) (UniProt Q01151); experiment: flow cytometry, HB15a-FITC on KM-H2 cells, gate placed right of the grey isotype control histogram
[3] = target: human CD83, cell surface, on lymphoma cells (human) (UniProt Q01151); experiment: flow cytometry, HB15a-FITC on L428 cells, gate placed right of the grey isotype control histogram
[4] = target: human CD83, cell surface, on lymphoma cells (human) (UniProt Q01151); experiment: flow cytometry, HB15e-FITC on KM-H2 cells, gate placed right of the grey isotype control histogram
[5] = target: human CD83, cell surface, on lymphoma cells (human) (UniProt Q01151); experiment: flow cytometry, HB15e-FITC on L428 cells, gate placed right of the grey isotype control histogram
[6] = target: human CD83, cell surface, on lymphoma cells (human) (UniProt Q01151); experiment: flow cytometry, HB15e-FITC on HDLM2 cells, gate placed right of the grey isotype control histogram

Chain of UniProt Q01151 (Q01151 20-205): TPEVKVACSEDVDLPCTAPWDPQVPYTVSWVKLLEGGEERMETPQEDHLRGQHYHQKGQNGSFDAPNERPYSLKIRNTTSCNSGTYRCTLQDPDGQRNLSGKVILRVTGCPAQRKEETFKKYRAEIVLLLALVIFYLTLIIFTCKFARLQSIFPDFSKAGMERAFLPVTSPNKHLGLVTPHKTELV

Row | positive gate (percent of cells in the gate) [1] | positive gate (percent of cells in the gate) [2] | positive gate (percent of cells in the gate) [3] | positive gate (percent of cells in the gate) [4] | positive gate (percent of cells in the gate) [5] | positive gate (percent of cells in the gate) [6] | Substance
1 | 14.7 | 99.5 | 27.2 | – | – | – | HB15a, mouse anti-human CD83 monoclonal antibody (Beckman and Coulter)
2 | – | – | – | 99 | 60 | 32.5 | HB15e, mouse anti-human CD83 monoclonal antibody (BD Biosciences)
